Results taken from article PMC9482650, “Quantitative fragmentomics allow affinity mapping of interactomes” (Nature Communications, 2022).

T1: LNX2_1, Q8N448
T1 sequence (Q8N448 228-328, limits assumed, looked up): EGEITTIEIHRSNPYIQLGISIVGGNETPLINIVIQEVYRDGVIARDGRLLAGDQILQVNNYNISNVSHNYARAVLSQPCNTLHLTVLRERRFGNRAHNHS


molecular target: Q92614; test: holdup assay; set-up: key: below the threshold = too weak to quantify, mostly under pKd 3.1 to 4; details: plain residues with an end cap or a label only (N-terminal biotin on a linker: ttds)

Binder | pKd
QSARYRDTEL [TJP2, Q9UDY2] | below the threshold
STLTIFETAL [ABCC4, O15439] | below the threshold

molecular target: O00560; test: holdup assay; set-up: key: below the threshold = too weak to quantify, mostly under pKd 3.1 to 4; details: plain residues with an end cap or a label only (N-terminal biotin on a linker: ttds)

Binder | pKd
QSARYRDTEL [TJP2, Q9UDY2] | below the threshold
STLTIFETAL [ABCC4, O15439] | below the threshold

molecular target: O15021; test: holdup assay; set-up: key: below the threshold = too weak to quantify, mostly under pKd 3.1 to 4; details: plain residues with an end cap or a label only (N-terminal biotin on a linker: ttds)

Binder | pKd
QSARYRDTEL [TJP2, Q9UDY2] | below the threshold
STLTIFETAL [ABCC4, O15439] | below the threshold

molecular target: Q9NPB6; test: holdup assay; set-up: key: below the threshold = too weak to quantify, mostly under pKd 3.1 to 4; details: plain residues with an end cap or a label only (N-terminal biotin on a linker: ttds)

Binder | pKd
QSARYRDTEL [TJP2, Q9UDY2] | below the threshold
STLTIFETAL [ABCC4, O15439] | below the threshold

molecular target: Q8TEW0; test: holdup assay; set-up: key: below the threshold = too weak to quantify, mostly under pKd 3.1 to 4; details: plain residues with an end cap or a label only (N-terminal biotin on a linker: ttds)

Binder | pKd
QSARYRDTEL [TJP2, Q9UDY2] | below the threshold
STLTIFETAL [ABCC4, O15439] | below the threshold

molecular target: Q96FS4; test: holdup assay; set-up: key: below the threshold = too weak to quantify, mostly under pKd 3.1 to 4; details: plain residues with an end cap or a label only (N-terminal biotin on a linker: ttds)

Binder | pKd
QSARYRDTEL [TJP2, Q9UDY2] | below the threshold
STLTIFETAL [ABCC4, O15439] | below the threshold

molecular target: Q9H190; test: holdup assay; set-up: key: below the threshold = too weak to quantify, mostly under pKd 3.1 to 4; details: plain residues with an end cap or a label only (N-terminal biotin on a linker: ttds)

Binder | pKd
QSARYRDTEL [TJP2, Q9UDY2] | below the threshold
STLTIFETAL [ABCC4, O15439] | below the threshold

molecular target: Q96HC4; test: holdup assay; set-up: key: below the threshold = too weak to quantify, mostly under pKd 3.1 to 4; details: plain residues with an end cap or a label only (N-terminal biotin on a linker: ttds)

Binder | pKd
QSARYRDTEL [TJP2, Q9UDY2] | below the threshold
STLTIFETAL [ABCC4, O15439] | below the threshold

molecular target: T1, LNX2_1, Q8N448; test: holdup assay; set-up: key: below the threshold = too weak to quantify, mostly under pKd 3.1 to 4; details: plain residues with an end cap or a label only (N-terminal biotin on a linker: ttds)

Binder | pKd
SSRTRRETQL [HPV16-E6, P03126] | below the threshold

molecular target: Q70Z35; test: holdup assay; set-up: key: below the threshold = too weak to quantify, mostly under pKd 3.1 to 4; details: plain residues with an end cap or a label only (N-terminal biotin on a linker: ttds)

Binder | pKd
QSARYRDTEL [TJP2, Q9UDY2] | below the threshold
STLTIFETAL [ABCC4, O15439] | below the threshold

molecular target: Q9C0E4; test: holdup assay; set-up: key: below the threshold = too weak to quantify, mostly under pKd 3.1 to 4; details: plain residues with an end cap or a label only (N-terminal biotin on a linker: ttds)

Binder | pKd
QSARYRDTEL [TJP2, Q9UDY2] | below the threshold
STLTIFETAL [ABCC4, O15439] | below the threshold

molecular target: LNX1_4, Q8TBB1; test: holdup assay; set-up: key: below the threshold = too weak to quantify, mostly under pKd 3.1 to 4; details: plain residues with an end cap or a label only (N-terminal biotin on a linker: ttds)
Sequence (Q8TBB1 631-726): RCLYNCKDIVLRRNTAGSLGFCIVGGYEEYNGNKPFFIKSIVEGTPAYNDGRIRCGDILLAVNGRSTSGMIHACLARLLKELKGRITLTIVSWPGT

Binder | pKd
SSRTRRETQL [HPV16-E6, P03126] | below the threshold

molecular target: Q96JY6; test: holdup assay; set-up: key: below the threshold = too weak to quantify, mostly under pKd 3.1 to 4; details: plain residues with an end cap or a label only (N-terminal biotin on a linker: ttds)

Binder | pKd
QSARYRDTEL [TJP2, Q9UDY2] | below the threshold
STLTIFETAL [ABCC4, O15439] | below the threshold

molecular target: Q13009; test: holdup assay; set-up: key: below the threshold = too weak to quantify, mostly under pKd 3.1 to 4; details: plain residues with an end cap or a label only (N-terminal biotin on a linker: ttds)

Binder | pKd
QSARYRDTEL [TJP2, Q9UDY2] | below the threshold
STLTIFETAL [ABCC4, O15439] | below the threshold

molecular target: Q8IUC4; test: holdup assay; set-up: key: below the threshold = too weak to quantify, mostly under pKd 3.1 to 4; details: plain residues with an end cap or a label only (N-terminal biotin on a linker: ttds)

Binder | pKd
QSARYRDTEL [TJP2, Q9UDY2] | below the threshold
STLTIFETAL [ABCC4, O15439] | below the threshold

molecular target: Q9Y3R0; test: holdup assay; set-up: key: below the threshold = too weak to quantify, mostly under pKd 3.1 to 4; details: plain residues with an end cap or a label only (N-terminal biotin on a linker: ttds)

Binder | pKd
QSARYRDTEL [TJP2, Q9UDY2] | below the threshold
STLTIFETAL [ABCC4, O15439] | below the threshold

molecular target: Q13368; test: holdup assay; set-up: key: below the threshold = too weak to quantify, mostly under pKd 3.1 to 4; details: plain residues with an end cap or a label only (N-terminal biotin on a linker: ttds)

Binder | pKd
QSARYRDTEL [TJP2, Q9UDY2] | below the threshold
STLTIFETAL [ABCC4, O15439] | below the threshold

molecular target: NHERF4_3, Q86UT5; test: holdup assay; set-up: key: below the threshold = too weak to quantify, mostly under pKd 3.1 to 4; details: plain residues with an end cap or a label only (N-terminal biotin on a linker: ttds)
Sequence (Q86UT5 325-412): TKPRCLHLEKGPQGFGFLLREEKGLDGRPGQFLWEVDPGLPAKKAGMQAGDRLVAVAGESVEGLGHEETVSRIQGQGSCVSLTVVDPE

Binder | pKd
SRPQRTQTQV [HPV67-E6, A4U7F2] | below the threshold
SSRTRRETQL [HPV16-E6, P03126] | 4.13
QSARYRDTEL [TJP2, Q9UDY2] | below the threshold

molecular target: Q96JB8; test: holdup assay; set-up: key: below the threshold = too weak to quantify, mostly under pKd 3.1 to 4; details: plain residues with an end cap or a label only (N-terminal biotin on a linker: ttds)

Binder | pKd
QSARYRDTEL [TJP2, Q9UDY2] | below the threshold
STLTIFETAL [ABCC4, O15439] | below the threshold

molecular target: O75970; test: holdup assay; set-up: key: below the threshold = too weak to quantify, mostly under pKd 3.1 to 4; details: plain residues with an end cap or a label only (N-terminal biotin on a linker: ttds)

Binder | pKd
QSARYRDTEL [TJP2, Q9UDY2] | below the threshold
STLTIFETAL [ABCC4, O15439] | below the threshold

molecular target: Q6ZWJ1; test: holdup assay; set-up: key: below the threshold = too weak to quantify, mostly under pKd 3.1 to 4; details: plain residues with an end cap or a label only (N-terminal biotin on a linker: ttds)

Binder | pKd
QSARYRDTEL [TJP2, Q9UDY2] | below the threshold
STLTIFETAL [ABCC4, O15439] | below the threshold

molecular target: Q12923; test: holdup assay; set-up: key: below the threshold = too weak to quantify, mostly under pKd 3.1 to 4; details: plain residues with an end cap or a label only (N-terminal biotin on a linker: ttds)

Binder | pKd
QSARYRDTEL [TJP2, Q9UDY2] | below the threshold
STLTIFETAL [ABCC4, O15439] | below the threshold

molecular target: Q9UMS6; test: holdup assay; set-up: key: below the threshold = too weak to quantify, mostly under pKd 3.1 to 4; details: plain residues with an end cap or a label only (N-terminal biotin on a linker: ttds)

Binder | pKd
QSARYRDTEL [TJP2, Q9UDY2] | below the threshold
STLTIFETAL [ABCC4, O15439] | below the threshold

molecular target: Q9ULJ8; test: holdup assay; set-up: key: below the threshold = too weak to quantify, mostly under pKd 3.1 to 4; details: plain residues with an end cap or a label only (N-terminal biotin on a linker: ttds)

Binder | pKd
QSARYRDTEL [TJP2, Q9UDY2] | below the threshold
STLTIFETAL [ABCC4, O15439] | below the threshold

molecular target: Q9P227; test: holdup assay; set-up: key: below the threshold = too weak to quantify, mostly under pKd 3.1 to 4; details: plain residues with an end cap or a label only (N-terminal biotin on a linker: ttds)

Binder | pKd
QSARYRDTEL [TJP2, Q9UDY2] | below the threshold
STLTIFETAL [ABCC4, O15439] | below the threshold
